One block for each substance: values may come before it.
Tests used:
collagen type I = collagen type I (UniProt P02452)
[1] = molecular target: human plasma fibronectin (human); assay: ligand affinity chromatography
[2] = molecular target: laminin from the Engelbreth-Holm-Swarm murine tumor (mouse) (UniProt P19137)
[3] = molecular target: human plasma fibronectin (human)

Chain of UniProt P02452 (P02452 162-1218, chain 1 of 2): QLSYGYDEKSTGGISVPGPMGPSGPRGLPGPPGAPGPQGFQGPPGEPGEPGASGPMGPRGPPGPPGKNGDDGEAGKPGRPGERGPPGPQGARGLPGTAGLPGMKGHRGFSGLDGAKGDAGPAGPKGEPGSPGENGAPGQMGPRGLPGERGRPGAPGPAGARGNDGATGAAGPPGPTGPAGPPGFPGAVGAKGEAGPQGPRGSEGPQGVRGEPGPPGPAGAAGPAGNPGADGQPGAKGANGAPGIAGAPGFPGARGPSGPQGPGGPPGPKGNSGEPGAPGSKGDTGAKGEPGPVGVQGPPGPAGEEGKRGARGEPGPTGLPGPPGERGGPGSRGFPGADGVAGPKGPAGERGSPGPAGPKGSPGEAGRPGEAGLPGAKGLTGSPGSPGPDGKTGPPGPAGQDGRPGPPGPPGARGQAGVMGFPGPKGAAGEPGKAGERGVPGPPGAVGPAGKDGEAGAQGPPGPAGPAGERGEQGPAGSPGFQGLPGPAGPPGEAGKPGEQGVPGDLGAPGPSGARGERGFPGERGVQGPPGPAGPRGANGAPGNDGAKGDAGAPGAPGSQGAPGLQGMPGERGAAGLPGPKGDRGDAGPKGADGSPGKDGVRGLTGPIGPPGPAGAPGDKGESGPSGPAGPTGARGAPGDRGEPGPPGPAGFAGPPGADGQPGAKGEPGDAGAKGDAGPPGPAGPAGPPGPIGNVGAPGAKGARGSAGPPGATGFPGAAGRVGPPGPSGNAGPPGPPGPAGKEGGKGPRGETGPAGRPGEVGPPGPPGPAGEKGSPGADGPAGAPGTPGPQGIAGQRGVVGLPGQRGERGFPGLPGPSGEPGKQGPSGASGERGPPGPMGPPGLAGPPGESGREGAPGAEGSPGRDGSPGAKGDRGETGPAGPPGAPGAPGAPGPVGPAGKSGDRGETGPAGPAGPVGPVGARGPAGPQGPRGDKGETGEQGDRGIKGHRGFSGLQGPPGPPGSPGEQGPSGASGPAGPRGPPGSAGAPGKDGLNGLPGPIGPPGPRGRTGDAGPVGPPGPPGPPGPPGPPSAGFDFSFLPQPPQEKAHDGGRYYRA
Chain of UniProt P02452 (P08123 80-1119, chain 2 of 2, further chain): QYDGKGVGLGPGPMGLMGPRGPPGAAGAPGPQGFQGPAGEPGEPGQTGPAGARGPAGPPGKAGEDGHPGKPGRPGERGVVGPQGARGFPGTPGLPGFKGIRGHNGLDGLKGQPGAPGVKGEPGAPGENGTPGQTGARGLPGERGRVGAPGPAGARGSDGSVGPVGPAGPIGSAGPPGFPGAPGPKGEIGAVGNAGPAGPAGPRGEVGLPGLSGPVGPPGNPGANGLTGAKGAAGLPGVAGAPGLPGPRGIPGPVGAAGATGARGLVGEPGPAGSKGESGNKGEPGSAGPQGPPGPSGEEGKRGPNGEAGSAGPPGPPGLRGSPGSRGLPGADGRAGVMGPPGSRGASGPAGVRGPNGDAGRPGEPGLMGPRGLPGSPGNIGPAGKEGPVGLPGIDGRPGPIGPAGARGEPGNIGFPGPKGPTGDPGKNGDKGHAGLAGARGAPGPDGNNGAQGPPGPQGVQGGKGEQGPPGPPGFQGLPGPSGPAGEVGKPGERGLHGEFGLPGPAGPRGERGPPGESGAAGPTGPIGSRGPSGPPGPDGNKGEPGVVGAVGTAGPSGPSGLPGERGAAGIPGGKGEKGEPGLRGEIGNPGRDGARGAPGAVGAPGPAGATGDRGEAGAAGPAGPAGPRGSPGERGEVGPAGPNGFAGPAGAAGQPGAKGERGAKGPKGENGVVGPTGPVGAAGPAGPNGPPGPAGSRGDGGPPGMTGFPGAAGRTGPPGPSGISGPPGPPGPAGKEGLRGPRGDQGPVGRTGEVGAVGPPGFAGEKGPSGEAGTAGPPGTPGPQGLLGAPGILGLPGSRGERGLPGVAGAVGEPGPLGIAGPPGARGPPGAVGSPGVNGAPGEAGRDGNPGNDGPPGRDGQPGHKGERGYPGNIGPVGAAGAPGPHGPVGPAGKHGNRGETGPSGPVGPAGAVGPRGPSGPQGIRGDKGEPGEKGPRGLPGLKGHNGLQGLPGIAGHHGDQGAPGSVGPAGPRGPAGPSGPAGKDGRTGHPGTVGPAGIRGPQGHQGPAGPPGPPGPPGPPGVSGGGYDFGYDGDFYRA

- percent of VLA-3 bound to the column [1]: 100%
Substance: integrin VLA-3 (alpha3 beta1) from LOX melanoma cells (from UniProt P05556 21-798) (receptor)

- Table II: inhibition of binding by Ca++ relative to Mg++ (ligand Coll-I,IV) (collagen type I): 15%
- Table II: stimulation of binding by Mn++ relative to Mg++ (ligand Coll-I,IV) (collagen type I): 1.4 fold
Substance: integrin VLA-3 (alpha3 beta1) from NCI-H69 small cell lung carcinoma cells (from UniProt P05556 21-798) (receptor)

The next lines start with the substance.

Substance: integrin VLA-2 (alpha2 beta1) from LOX melanoma cells (from UniProt P17301;P05556) (receptor)
- inhibition of LOX cell attachment to Coll type I by anti-VLA-2 mAb (5E8) (collagen type I): 76%

Substance: integrin VLA-6 (alpha6 beta1) (from UniProt P05556 21-798) (receptor)
- inhibition of LOX cell attachment to Lm by anti-VLA-6 mAb (GoH3) [2]: 77%
- inhibition of NCI-H69 cell attachment to Lm by anti-VLA-6 mAb GoH3 [2]: 53%

Substance: integrin VLA-5 (alpha5 beta1) from LOX melanoma cells (from UniProt P05556 21-798) (receptor)
- inhibition of LOX cell attachment to Fn by anti-VLA-5 mAb (P1D6) [3]: 85%
